Test results reported in the supplement of paper PMC12042874.
± gives the uncertainty stated by the source.

experiment: amyloid nucleation score (Sup35N fusion, yeast selection) (log enrichment); library NNK1; higher = more nucleation; inactive = no reads after selection
How it was run: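 Peptides of 20 random codons, each fused to Sup35N, were expressed in psi-negative yeast. Cells were induced with 100 μM copper sulfate for 24 hours and grown 7 days at 30°C on medium lacking adenine and uracil, and plasmid inserts before and after selection were Illumina-sequenced. Nucleation scores are DiMSum log enrichments of output over input reads, centred on the mode score of non-aggregating sequences, and sequences under 100 input reads were excluded.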

Row | Substance | amyloid nucleation score
1 | SFRCMEYSWGDWVINPPYLS | 0.234 ± 0.62
2 | SFSFKCDYYVPCRRYIFVIL | -1.3 ± 1.1
3 | SFSKYAGFARKWSMLRVASY | -0.337 ± 1.2
4 | SFSLSLVFRISPDGLGHFLQ | 0.412 ± 0.3
5 | SFSNVRNI | -1.52 ± 0.81
6 | SFTVVGLKLTIVRDNNS | 3.86 ± 0.12
7 | SFVCCFRLPWMGGTKNPMHV | 3.55 ± 0.19
8 | SFVNTNHRMRRCYTTENNPS | -0.796 ± 0.68
9 | SFVVTAEPSRAMNYSCFWKR | inactive
10 | SFYLFCPNCGRWTVFGEYS | -1 ± 0.31
11 | SFYYIWRGLVTSED | -0.779 ± 0.8
12 | SGAVIYANKFYVISCHNWSY | 7.478 ± 0.057
13 | SGDCVL | 1.43 ± 0.26
14 | SGGLNFLGLPVVFF | 0.173 ± 0.92
15 | SGGPGDAGRLRQ | -0.005 ± 0.91
16 | SGHGFLRQ | inactive
17 | SGHTVVMVMNMCCVSFHLRC | 6.562 ± 0.048
18 | SGIPSVLATGYSYKF | -0.273 ± 0.29
19 | SGIYGCSGRQDIKSKNYGSR | 1.12 ± 0.56
20 | SGMVLNNQSS | -0.763 ± 0.79
21 | SGNMNSLYWKSQKCNSYSFP | 0.935 ± 1.1
22 | SGRWLYVLVPICMPYVAELS | inactive
23 | SGSDVILAYTPTPPGDSPVW | 0.645 ± 0.61
24 | SGSLGS | 0.386 ± 0.84
25 | SGTQKNRCTSLMQC | 0.709 ± 0.53

Row | Substance | amyloid nucleation score
26 | SGTRFLFEPSELINPYNHRC | 1.15 ± 0.68
27 | SGTSLPNITLLDTFCTRCFV | -0.095 ± 0.22
28 | SGWIRLL | 0.66 ± 0.36
29 | SGYSRGKEEQKHQFA | 0.137 ± 0.6
30 | SHAFRITS | 0.619 ± 0.85
31 | SHCCR | inactive
32 | SHDFVVIISNCR | 5.57 ± 0.093
33 | SHFFLIT | -0.48 ± 1.5
34 | SHFVLMLFENSIIVCLEDWE | 1.91 ± 0.57
35 | SHKGNPCRKIC | -0.392 ± 0.38
36 | SHLLGINCCCA | 0.131 ± 0.85
37 | SHPFTFSCAHILLWMSLRRF | 0.276 ± 0.45
38 | SHPTNFSCIVVSARQGVKKI | -0.148 ± 0.79
39 | SHTADFRVLLRLIQYERGLR | 3.44 ± 0.18
40 | SHTLHDAIYGVDVQPFDTRV | 0.102 ± 0.66
41 | SHVPEVGVGSDAVFLANKGI | -0.855 ± 0.69
42 | SIAFYFFKPLYVLVPNMFGY | 6.15 ± 0.073
43 | SICTCKWYVSVWWAIWRINN | 1.59 ± 0.42
44 | SIDWRAEMNSLSM | -0.109 ± 0.24
45 | SIEGRSSIQATMCSMLLNGP | -0.197 ± 0.39
46 | SIFLCVSLSVTCETILAGLD | 2.8 ± 0.16
47 | SIGWYTQGRYVGMCHRN | 0.251 ± 0.53
48 | SIIIGMRLCHHVRSAYTNEL | 3.21 ± 0.18
49 | SINVVLAINGTAHCNFSASL | 4.66 ± 0.067
50 | SIPLCTLESQSEKVTWISDQ | 0.325 ± 0.78

Row | Substance | amyloid nucleation score
51 | SIRTLQDNSTSSENFKVESV | 0.273 ± 0.64
52 | SITLS | -0.926 ± 1.8
53 | SIVGLNQ | 0.742 ± 0.43
54 | SIVRTDDIARLSLMLGRRSV | -0.724 ± 0.56
55 | SIYRHDA | -0.053 ± 1.1
56 | SIYRYLCGRFDCLWILPCEH | 1.29 ± 0.84
57 | SKCCDSSRARVASSYS | 0.261 ± 0.36
58 | SKETAFGLSL | -0.368 ± 0.54
59 | SKKSMYFLVRNWSQNLTRAG | 2.21 ± 0.63
60 | SKLCVCGTASLLHYTVTERV | 5.29 ± 0.11
61 | SKLYLIEVFLYA | -0.468 ± 0.66
62 | SKMDGVATRYRYNAMRADVK | 0.181 ± 0.2
63 | SKQGRCLTFYQYVSLIISSM | -0.022 ± 0.18
64 | SKSRLL | 0.006 ± 0.4
65 | SKSTYSLIGLGTFISRFNGN | 1.03 ± 0.36
66 | SKTRVLM | -0.374 ± 0.41
67 | SKTSKWYPTDKLNTGALFLK | -0.321 ± 0.34
68 | SKVCE | 0.085 ± 0.66
69 | SKYIGVVSPTWLH | 0.428 ± 1.2
70 | SLCFYGEQIFHN | 2.24 ± 0.17
71 | SLFAQKS | -0.273 ± 0.32
72 | SLFQGERIPFGWNEGQTKDV | -0.469 ± 1.2
73 | SLGCYCRVKIVWVCILGYTA | 0.526 ± 0.27
74 | SLGGVGRTTHNILCEADSGA | 1.44 ± 0.38
75 | SLGKLYAGDGVCMGTLPDSK | 0.017 ± 0.56

Row | Substance | amyloid nucleation score
76 | SLIFCSYSNDLFHSWNHKFR | -0.068 ± 0.7
77 | SLIGYVIKW | -0.095 ± 0.63
78 | SLKGFADSVSGSVGLKDKAV | 0.502 ± 0.61
79 | SLLCLCYV | 7.599 ± 0.059
80 | SLLCTIYRVCADPYMGQNMT | inactive
81 | SLLDMIYVIDTTTKNCILSK | 0.983 ± 0.35
82 | SLLDSEGVRYLIMEL | 0.102 ± 0.4
83 | SLLDWCYINRHM | 0.604 ± 0.44
84 | SLLGPIGIIQTWIPTHLDLF | inactive
85 | SLLRRA | 0.575 ± 0.71
86 | SLLTCILGFPSCPGASMMFQ | 7.057 ± 0.067
87 | SLNGMTYVSMIVRSD | 1.41 ± 0.39
88 | SLNSMVSLTWVRRDYTIWKR | 0.001 ± 0.23
89 | SLPAEYSRRPKWVGASTVDW | 0.527 ± 0.55
90 | SLPRPIMFSLVVIILYNFVR | -0.333 ± 0.47
91 | SLRDACFGVNI | -0.091 ± 0.29
92 | SLRLARNGYIYAICRFLCYS | -1.15 ± 2.7
93 | SLRYSLCRL | 0.328 ± 0.24
94 | SLSQFSKPGYICVNMVCSQA | 1.36 ± 0.48
95 | SLSQG | 0.441 ± 0.93
96 | SLTCWG | 0.436 ± 0.33
97 | SLTFVPTLFTCMDLMHC | 7.415 ± 0.067
98 | SLVASNSQL | 0.06 ± 0.45
99 | SLVDGSHNNFRGWVPIVVQG | -0.079 ± 0.99
100 | SLVNFVAMGARDRIPCVYKR | -1.03 ± 2.4

Row | Substance | amyloid nucleation score
101 | SLVRMLRHLRMDEKFLLIRY | 0.268 ± 0.53
102 | SLVWVCFWGICI | 6.67 ± 0.088
103 | SLYLGNSGSDLGD | 0.2 ± 1.1
104 | SLYRIFRKASFESCGLEWFA | 0.191 ± 0.66
105 | SMAFGCWSVGWYRGMMSVCQ | 1.16 ± 0.6
106 | SMFCARLDTRVSRTGFPDRG | -0.557 ± 0.61
107 | SMFLLRPYRVCFCSRRFVTV | 0.253 ± 0.77
108 | SMLAFQMITKQRQHSFWMWT | -0.766 ± 0.39
109 | SMLALGFPSVNCQWTGATFS | 1.22 ± 0.97
110 | SMSFRCLDAKDVPDRASQGY | -0.385 ± 0.39
111 | SMSPWDFNICCMNVCTTLLT | 2.77 ± 0.25
112 | SMSSSWG | 0.19 ± 0.56
113 | SMVAPRPANVRVRLVGRGST | 0.354 ± 0.51
114 | SNCVIVSQLKITDA | -0.184 ± 0.44
115 | SNDKHKIRIYAGYFFVQRGC | 0.312 ± 0.37
116 | SNFKK | -1.06 ± 0.64
117 | SNFLHCIVIILWLCFNL | 0.53 ± 0.71
118 | SNGCPFDTIDQAKVGTVV | 0.861 ± 0.68
119 | SNGRFWYMADSVST | inactive
120 | SNIASNKKVIMINHFKGFSL | 3.58 ± 0.057
121 | SNKDLKSLTICRSTQHWTVL | 0.095 ± 0.27
122 | SNLRSVMKRNYTVRLFCVG | inactive
123 | SNNHQFFCDTFDIGWWEVGR | -1.63 ± 2.4
124 | SNQRKYGAPVKSLWEIFKSE | 1.34 ± 0.93
125 | SNSFRLGGSNNYPMSSAPGL | -1.74 ± 2.4

Row | Substance | amyloid nucleation score
126 | SNSLCETWSRWWKRMFTDTF | 0.179 ± 0.48
127 | SNSLTFYFSKCYTSCSNLLG | 6.079 ± 0.057
128 | SNSRGYSWRDTGTNLRGYPE | -0.238 ± 1.5
129 | SNSSVSW | 0.717 ± 0.57
130 | SNTEP | -0.487 ± 0.57
131 | SNVDSWFGRVTSA | -0.698 ± 0.33
132 | SPAFQWHLYPSA | 0.592 ± 0.87
133 | SPCWSHF | inactive
134 | SPEGWYFRTTWLVA | inactive
135 | SPFLSAFLSFLTSFYLIFMG | -0.164 ± 0.61
136 | SPFMGCLYNLLDLDDGS | -0.65 ± 0.51
137 | SQCSSLIHAIEMDRFVF | 0.276 ± 0.23
138 | SQKEFRKTAIKTHLMFRIHL | -0.258 ± 0.29
139 | SQRTWCLLGIGSTITRIHFG | 2.74 ± 0.23
140 | SQSRRVSGQQDGPQMYSNGP | -0.232 ± 0.36
141 | SQYDWLKLFSNVY | -0.175 ± 0.21
142 | SRASKYMYVWVVLITFHCLR | inactive
143 | SRFKPWGGSFVGYCVLYGRL | -1.01 ± 0.71
144 | SRFMGTNN | 0.102 ± 0.84
145 | SRFPYKKSVRTDSGRMSM | -0.393 ± 0.86
146 | SRGFKPMPGQYFCKG | 0.165 ± 0.26
147 | SRGVQGMYDDYKDGGLLYLV | -0.228 ± 0.19
148 | SRLQLNWLQPRWY | 4.27 ± 0.077
149 | SRLYVCFALSSLSISRNNYG | 3.11 ± 0.22
150 | SRNRLFVRRVRLANSLSFNA | -0.226 ± 1.1

Row | Substance | amyloid nucleation score
151 | SRPSQCYINAFMFSMFKSGN | inactive
152 | SRRSENYFSGANRIGHGGST | 0.54 ± 0.4
153 | SRTTAVSYLGNGFVI | -0.573 ± 0.42
154 | SRTVVTYHQLTWHGVGYMV | 0.571 ± 1.2
155 | SRVFLCCAMCLRRNSGYGR | -0.362 ± 0.4
156 | SRVSLFGWSGFKFTSRDSWL | 3.51 ± 0.18
157 | SRWGPRL | -0.494 ± 0.71
158 | SRWKLGGGDL | 0.006 ± 0.64
159 | SRYQEYRFQMCMMECMRRLA | 0.115 ± 1
160 | SRYWSLYGGIIVVSRSRTGR | 0.45 ± 0.32
161 | SSCSYLGRDRMCFWPYFLTT | 0.016 ± 0.39
162 | SSDKLCAYFVREIWTQGAGW | 0.507 ± 0.54
163 | SSFARL | 1.12 ± 0.55
164 | SSFIWMNC | -0.377 ± 0.42
165 | SSFLASGL | -0.529 ± 1.3
166 | SSFRVGTIVTNSAWRWSPCW | 5.4 ± 0.062
167 | SSGFSTMYIK | -0.892 ± 2.1
168 | SSLGAIYGLINQRPA | 0.776 ± 1
169 | SSLLKWWDIVMKGEVIHGWC | -0.095 ± 0.47
170 | SSLRPRKCCWRKTRRLSKGG | 0.441 ± 0.67
171 | SSMNSWTDFFHFCST | 0.032 ± 0.97
172 | SSNSGYSWSFTAWMGLGMRR | -0.037 ± 1.7
173 | SSPVRGASKSSRGSTNVHAN | 0.29 ± 1.1
174 | SSRCY | 0.104 ± 0.85
175 | SSRNRV | -1.07 ± 0.59
